Here are results for 1 molecule from publication PMC5748983.

The target in this experiment is GST-DENN-4 (C. elegans). In words: pull-down.

B1: HA-RAB-10(T23N) (natural protein)
chain: MARRPYDMLFKLLLIGDSGVGKNCILYRFSDDAFNTTFISTIGIDFKIKTIELKGKKIKLQIWDTAGQERFHTITTSYYRGAMGIMLVYDITNAKSFDNIAKWLRNIDEHASEDVVKMILGNKCDMSDRRVVSRERGEKIAQDHGISFHETSAKLNVHVDTAFYDLAEAILAKMPDSTDEQSRDTVNPVQPQRQSSSGGCC
Turning to B1, the fold increase of pull-down with HA-LET-413 added, against without was found to be 3 fold.
